Paper PMC10522637

Biological target: human Toll-like receptor 5 (3xFlag-hTLR5) (human) (UniProt O60602)
Sequence of UniProt O60602 (O60602 21-858): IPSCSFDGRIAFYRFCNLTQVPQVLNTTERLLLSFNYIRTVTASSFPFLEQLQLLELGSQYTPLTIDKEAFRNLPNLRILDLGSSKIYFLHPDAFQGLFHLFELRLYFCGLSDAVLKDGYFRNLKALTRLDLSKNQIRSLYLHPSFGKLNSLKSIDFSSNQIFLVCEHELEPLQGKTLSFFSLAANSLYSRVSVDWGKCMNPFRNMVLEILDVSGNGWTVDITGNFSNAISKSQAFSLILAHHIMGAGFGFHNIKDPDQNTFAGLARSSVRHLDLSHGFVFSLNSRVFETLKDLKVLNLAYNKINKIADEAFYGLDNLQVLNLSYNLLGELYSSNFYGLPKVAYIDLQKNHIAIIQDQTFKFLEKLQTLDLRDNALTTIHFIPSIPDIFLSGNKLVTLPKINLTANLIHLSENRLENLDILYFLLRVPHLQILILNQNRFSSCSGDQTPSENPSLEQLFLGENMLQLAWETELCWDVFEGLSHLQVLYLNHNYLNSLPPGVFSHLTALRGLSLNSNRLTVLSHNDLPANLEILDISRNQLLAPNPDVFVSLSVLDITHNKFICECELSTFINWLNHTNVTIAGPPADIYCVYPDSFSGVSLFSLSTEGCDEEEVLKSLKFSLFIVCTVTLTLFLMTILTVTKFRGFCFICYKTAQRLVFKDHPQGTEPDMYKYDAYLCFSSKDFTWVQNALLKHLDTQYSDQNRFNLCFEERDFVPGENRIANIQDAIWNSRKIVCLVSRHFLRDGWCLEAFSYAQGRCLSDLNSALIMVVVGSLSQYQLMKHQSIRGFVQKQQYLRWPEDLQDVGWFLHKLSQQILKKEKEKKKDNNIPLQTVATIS

Substance	EC50 of TLR5-dependent NF-κB stimulating activity, HEK-Blue hTLR5 reporter cells [nM]
PNGase F-treated (deglycosylated) eFlaB (natural protein)	3.88
eukaryotic-expressed Vibrio vulnificus FlaB (eFlaB) (natural protein)	13.8
prokaryotic-expressed Vibrio vulnificus FlaB (pFlaB) (natural protein)	3.32
